Experimental data from US20140271457A1 (AbbVie / Abbott, published 2014).

B1: DVD3283 (bispecific antibody, IgG1)
VH: EVQLVQSGAEVKKPGASVKVSCKASGYTFANYGIIWVRQAPGQGLEWMGWINTYTGKPTYAQKFQGRVTMTTDTSTSTAYMELSSLRSEDTAVYYCARKLFTTMDVTDNAMDYWGQGTTVTVSSGGGGSGGGGSEVQLQQSGPELVTPGASVKISCKASGYTFTKYWLGWVKQSHGKSLEWIGDIYPGYDYTHYNEKFKDTATLTVDKSSSIAYMEIRGLTSEDSAVYYCARSDGSSTYWGQGTLVTVSA
VL: DIQMTQSPSSLSASVGDRVTITCRASQDISQYLNWYQQKPGKAPKLLIYYTSRLQSGVPSRFSGSGSGTDFTLTISSLQPEDFATYFCQQGNTWPPTFGQGTKLEIKRGGSGGGGSGDVQMIQSPSSLSASLGDIVTMTCTSSQNIVHSNGNTYLEWFQQKPGKAPKLLIYKVSNRFSGVPSRFSGSRYGTDFTLTISSLEDEDLATYFCFQVSHVPYTFGGGTKLEIKR
B2: DVD2766 (bispecific antibody, IgG1)
VH: EVQLVESGGGLVQPGGSLRLSCAASGFTFSNYGVEWVRQAPGKGLEWVSGIWADGSTHYADTVKSRFTISRDNSKNTLYLQMNSLRAEDTAVYYCAREWQHGPVAYWGQGTLVTVSSASTKGPEVQLVESGGGLVQPGGSLRLSCAASGFSLTNNNVNWVRQAPGKGLEWVGGVWAGGATDYNSALKSRFTISRDNSKNTAYLQMNSLRAEDTAVYYCARDGGYSSSTLYAMDAWGQGTLVTVSS
VL: DIQMTQSPSSLSASVGDRVTITCKASQLVSSAVAWYQQKPGKAPKLLIYWASTLHTGVPSRFSGSGSGTDFTLTISSLQPEDFATYYCQQHYRTPFTFGQGTKLEIKRTVAAPSVFIFPPDIQMTQSPSSLSASVGDRVTITCRASEDIYNALAWYQQKPGKAPKLLIYNTDTLHTGVPSRFSGSGSGTDYTLTISSLQPEDFATYFCQHYFHYPRTFGQGTKVEIKR
B3: DVD3043 (bispecific antibody, IgG1)
VH: EVQLVESGGGLVQPGGSLRLSCAASGFSLTNNNVNWVRQAPGKGLEWVGGVWAGGATDYNSALKSRFTISRDNSKNTAYLQMNSLRAEDTAVYYCARDGGYSSSTLYAMDAWGQGTLVTVSSGGGGSGGGGSEVQLVQSGAEVKKPGASVKVSCKASGYTFNNYGIIWVRQAPGQGLEWMGWINTYTGKPTYAQKFQGRVTMTTDTSTSTAYMELSSLRSEDTAVYYCARKLFNTVAVTDNAMDYWGQGTTVTVSS
VL: DIQMTQSPSSLSASVGDRVTITCRASEDIYNALAWYQQKPGKAPKLLIYNTDTLHTGVPSRFSGSGSGTDYTLTISSLQPEDFATYFCQHYFHYPRTFGQGTKVEIKRGGSGGGGSGDIQMTQSPSSLSASVGDRVTITCRASQDIENYLNWYQQKPGKAPKLLIYYTSRLQSGVPSRFSGSGSGTDFTLTISSLQPEDFATYFCQQGNTQPPTFGQGTKLEIKR
B4: DVD3267 (bispecific antibody, IgG1)
VH: EVQLVESGGGLVQPGGSLRLSCAASGFSFSKYWLGWVRQAPGKGLEWVSDIYPGYDYTHYNEKFKDRFTISADTSKNTAYLQMNSLRAEDTAVYYCARSDGSSTYWGQGTLVTVSSASTKGPSVFPLAPEVQLQQSGPELVTPGASVKISCKASGYTFTKYWLGWVKQSHGKSLEWIGDIYPGYDYTHYNEKFKDTATLTVDKSSSIAYMEIRGLTSEDSAVYYCARSDGSSTYWGQGTLVTVSA
VL: DIQMTQSPSSLSASVGDRVTITCTSSQNIVHSNGNTYLEWYQQKPGKAPKLLIYKVSNRFSGVPSRFSGSGSGTDFTLTISSLQPEDFATYYCFQVSHVPYTFGQGTKVEIKRTVAAPDVQMIQSPSSLSASLGDIVTMTCTSSQNIVHSNGNTYLEWFQQKPGKAPKLLIYKVSNRFSGVPSRFSGSRYGTDFTLTISSLEDEDLATYFCFQVSHVPYTFGGGTKLEIKR
B5: DVD3284 (bispecific antibody, IgG1)
VH: EVQLVQSGAEVKKPGASVKVSCKASGYTFANYGIIWVRQAPGQGLEWMGWINTYTGKPTYAQKFQGRVTMTTDTSTSTAYMELSSLRSEDTAVYYCARKLFTTMDVTDNAMDYWGQGTTVTVSSASTKGPEVQLQQSGPELVTPGASVKISCKASGYTFTKYWLGWVKQSHGKSLEWIGDIYPGYDYTHYNEKFKDTATLTVDKSSSIAYMEIRGLTSEDSAVYYCARSDGSSTYWGQGTLVTVSA
VL: DIQMTQSPSSLSASVGDRVTITCRASQDISQYLNWYQQKPGKAPKLLIYYTSRLQSGVPSRFSGSGSGTDFTLTISSLQPEDFATYFCQQGNTWPPTFGQGTKLEIKRTVAAPDVQMIQSPSSLSASLGDIVTMTCTSSQNIVHSNGNTYLEWFQQKPGKAPKLLIYKVSNRFSGVPSRFSGSRYGTDFTLTISSLEDEDLATYFCFQVSHVPYTFGGGTKLEIKR
B6: DVD3287 (bispecific antibody)
VH: EVQLVQSGAEVKKPGASVKVSCKASGYTFANYGIIWVRQAPGQGLEWMGWINTYTGKPTYAQKFQGRVTMTTDTSTSTAYMELSSLRSEDTAVYYCARKLFTTMDVTDNAMDYWGQGTTVTVSSASTKGPSVFPLAPEVQLQQSGPELVTPGASVKISCKASGYTFTKYWLGWVKQSHGKSLEWIGDIYPGYDYTHYNEKFKDTATLTVDKSSSIAYMEIRGLTSEDSAVYYCARSDGSSTYWGQGTLVTVSA
VL: B5 VL
B7: DVD3286 (bispecific antibody, IgG1)
VH: B5 VH
VL: DIQMTQSPSSLSASVGDRVTITCRASQDISQYLNWYQQKPGKAPKLLIYYTSRLQSGVPSRFSGSGSGTDFTLTISSLQPEDFATYFCQQGNTWPPTFGQGTKLEIKRTVAAPSVFIFPPDVQMIQSPSSLSASLGDIVTMTCTSSQNIVHSNGNTYLEWFQQKPGKAPKLLIYKVSNRFSGVPSRFSGSRYGTDFTLTISSLEDEDLATYFCFQVSHVPYTFGGGTKLEIKR
B8: DVD3242 (bispecific antibody, IgG1)
VH: EVQLVESGGGLVQPGGSLRLSCAASGFSFSKYWLGWVRQAPGKGLEWVSDIYPGYDYTHYNEKFKDRFTISADTSKNTAYLQMNSLRAEDTAVYYCARSDGSSTYWGQGTLVTVSSASTKGPSVFPLAPEVQLVQSGAEVKKPGASVKVSCKASGYTFNNYGIIWVRQAPGQGLEWMGWINTYTGKPTYAQKFQGRVTMTTDTSTSTAYMELSSLRSEDTAVYYCARKLFNTVAVTDNAMDYWGQGTTVTVSS
VL: DIQMTQSPSSLSASVGDRVTITCTSSQNIVHSNGNTYLEWYQQKPGKAPKLLIYKVSNRFSGVPSRFSGSGSGTDFTLTISSLQPEDFATYYCFQVSHVPYTFGQGTKVEIKRTVAAPDIQMTQSPSSLSASVGDRVTITCRASQDIENYLNWYQQKPGKAPKLLIYYTSRLQSGVPSRFSGSGSGTDFTLTISSLQPEDFATYFCQQGNTQPPTFGQGTKLEIKR
B9: DVD3044 (bispecific antibody, IgG1)
VH: EVQLVESGGGLVQPGGSLRLSCAASGFSLTNNNVNWVRQAPGKGLEWVGGVWAGGATDYNSALKSRFTISRDNSKNTAYLQMNSLRAEDTAVYYCARDGGYSSSTLYAMDAWGQGTLVTVSSASTKGPEVQLVQSGAEVKKPGASVKVSCKASGYTFNNYGIIWVRQAPGQGLEWMGWINTYTGKPTYAQKFQGRVTMTTDTSTSTAYMELSSLRSEDTAVYYCARKLFNTVAVTDNAMDYWGQGTTVTVSS
VL: DIQMTQSPSSLSASVGDRVTITCRASEDIYNALAWYQQKPGKAPKLLIYNTDTLHTGVPSRFSGSGSGTDYTLTISSLQPEDFATYFCQHYFHYPRTFGQGTKVEIKRTVAAPDIQMTQSPSSLSASVGDRVTITCRASQDIENYLNWYQQKPGKAPKLLIYYTSRLQSGVPSRFSGSGSGTDFTLTISSLQPEDFATYFCQQGNTQPPTFGQGTKLEIKR
B10: DVD3264 (bispecific antibody, IgG1)
VH: EVQLVESGGGLVQPGGSLRLSCAASGFTFSNYGVTWVRQAPGKGLEWVSMIWADGSTHYASSVKGRFTISRDNSKNTLYLQMNSLRAEDTAVYYCAREWQHGPVAYWGQGTLVTVSSASTKGPEVQLQQSGPELVTPGASVKISCKASGYTFTKYWLGWVKQSHGKSLEWIGDIYPGYDYTHYNEKFKDTATLTVDKSSSIAYMEIRGLTSEDSAVYYCARSDGSSTYWGQGTLVTVSA
VL: DIQMTQSPSSLSASVGDRVTITCRASQLVSSAVAWYQQKPGKAPKLLIYWASARHTGVPSRFSGSGSGTDFTLTISSLQPEDFATYYCQQHYKTPFTFGQGTKLEIKRTVAAPDVQMIQSPSSLSASLGDIVTMTCTSSQNIVHSNGNTYLEWFQQKPGKAPKLLIYKVSNRFSGVPSRFSGSRYGTDFTLTISSLEDEDLATYFCFQVSHVPYTFGGGTKLEIKR
B11: DVD3263 (bispecific antibody, IgG1)
VH: EVQLVESGGGLVQPGGSLRLSCAASGFTFSNYGVTWVRQAPGKGLEWVSMIWADGSTHYASSVKGRFTISRDNSKNTLYLQMNSLRAEDTAVYYCAREWQHGPVAYWGQGTLVTVSSGGGGSGGGGSEVQLQQSGPELVTPGASVKISCKASGYTFTKYWLGWVKQSHGKSLEWIGDIYPGYDYTHYNEKFKDTATLTVDKSSSIAYMEIRGLTSEDSAVYYCARSDGSSTYWGQGTLVTVSA
VL: DIQMTQSPSSLSASVGDRVTITCRASQLVSSAVAWYQQKPGKAPKLLIYWASARHTGVPSRFSGSGSGTDFTLTISSLQPEDFATYYCQQHYKTPFTFGQGTKLEIKRGGSGGGGSGDVQMIQSPSSLSASLGDIVTMTCTSSQNIVHSNGNTYLEWFQQKPGKAPKLLIYKVSNRFSGVPSRFSGSRYGTDFTLTISSLEDEDLATYFCFQVSHVPYTFGGGTKLEIKR

Each binder was assayed against Recombinant Human TNF-α/TNFSF1A (human, UniProt P01375 77-233) (assay: cell-based or functional assay).
Chain of Recombinant Human TNF-α/TNFSF1A (P01375 77-233 limits assumed): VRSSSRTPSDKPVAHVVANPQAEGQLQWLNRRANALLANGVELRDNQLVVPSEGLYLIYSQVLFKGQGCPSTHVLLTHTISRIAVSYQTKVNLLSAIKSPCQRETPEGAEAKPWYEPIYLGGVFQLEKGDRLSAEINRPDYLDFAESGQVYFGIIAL

Row | N-Terminal VD huTNFα Neutralization Assay IC50 | C-Terminal VD huTNFα Neutralization Assay IC50 | Binder
1 | 0.002 nM |  | B1
2 | 0.01 nM |  | B2
3 |  | 0.128 nM | B3
4 | 0.002 nM |  | B4
5 | 0.012 nM |  | B5
6 | 0.018 nM |  | B6
7 | 0.002 nM |  | B7
8 |  | 0.13 nM | B8
9 |  | 0.673 nM | B9
10 | 0.006 nM |  | B10
11 | 0.008 nM |  | B11
